{"source": "paper PMC3407194", "assay_in_all_cases": "primer extension with trap", "conditions_in_all_cases": "Primer extension: 50 mM Tris-HCl pH 8.0, 80 mM KCl, 6 mM MgCl2, 1 mM DTT, 0.1 mg/ml BSA, room temperature, 1 nM duplex; filter binding: Tris-HCl pH 8.0, 80 mM …", "key": {"[1]": {"molecular_target": "T1, Ty3 RT (Ty3 retrotransposon) (UniProt Q99315)", "T1 sequence": "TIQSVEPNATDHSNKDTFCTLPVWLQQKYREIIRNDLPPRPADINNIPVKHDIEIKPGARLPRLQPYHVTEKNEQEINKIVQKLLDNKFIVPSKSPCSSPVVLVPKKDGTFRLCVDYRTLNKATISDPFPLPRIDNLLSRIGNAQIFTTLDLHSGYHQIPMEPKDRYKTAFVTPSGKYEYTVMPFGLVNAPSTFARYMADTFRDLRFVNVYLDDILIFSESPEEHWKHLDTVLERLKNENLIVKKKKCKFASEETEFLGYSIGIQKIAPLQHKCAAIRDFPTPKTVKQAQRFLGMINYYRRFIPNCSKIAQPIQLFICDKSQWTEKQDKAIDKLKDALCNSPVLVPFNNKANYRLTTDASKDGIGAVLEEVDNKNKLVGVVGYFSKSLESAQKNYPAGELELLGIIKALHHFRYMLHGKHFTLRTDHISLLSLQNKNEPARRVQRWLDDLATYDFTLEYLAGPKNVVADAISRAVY"}, "[2]": {"molecular_target": "T2, AMV RT (avian myeloblastosis virus) (UniProt Q83133+Q83133)", "T2 sequence 1": "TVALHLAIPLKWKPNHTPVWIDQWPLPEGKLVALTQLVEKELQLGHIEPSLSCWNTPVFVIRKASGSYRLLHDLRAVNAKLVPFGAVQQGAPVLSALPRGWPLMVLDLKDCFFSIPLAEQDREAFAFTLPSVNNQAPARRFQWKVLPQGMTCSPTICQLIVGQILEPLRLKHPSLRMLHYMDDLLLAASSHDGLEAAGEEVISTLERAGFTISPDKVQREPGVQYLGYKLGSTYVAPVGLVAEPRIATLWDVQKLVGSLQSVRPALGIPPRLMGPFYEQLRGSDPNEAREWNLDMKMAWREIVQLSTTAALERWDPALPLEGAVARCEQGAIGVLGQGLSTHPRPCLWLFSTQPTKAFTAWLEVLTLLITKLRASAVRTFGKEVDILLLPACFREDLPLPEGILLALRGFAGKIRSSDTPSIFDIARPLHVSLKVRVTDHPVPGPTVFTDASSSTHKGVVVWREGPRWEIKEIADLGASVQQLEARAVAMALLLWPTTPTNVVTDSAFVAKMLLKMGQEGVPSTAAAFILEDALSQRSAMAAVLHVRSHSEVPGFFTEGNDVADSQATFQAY", "T2 sequence 2": "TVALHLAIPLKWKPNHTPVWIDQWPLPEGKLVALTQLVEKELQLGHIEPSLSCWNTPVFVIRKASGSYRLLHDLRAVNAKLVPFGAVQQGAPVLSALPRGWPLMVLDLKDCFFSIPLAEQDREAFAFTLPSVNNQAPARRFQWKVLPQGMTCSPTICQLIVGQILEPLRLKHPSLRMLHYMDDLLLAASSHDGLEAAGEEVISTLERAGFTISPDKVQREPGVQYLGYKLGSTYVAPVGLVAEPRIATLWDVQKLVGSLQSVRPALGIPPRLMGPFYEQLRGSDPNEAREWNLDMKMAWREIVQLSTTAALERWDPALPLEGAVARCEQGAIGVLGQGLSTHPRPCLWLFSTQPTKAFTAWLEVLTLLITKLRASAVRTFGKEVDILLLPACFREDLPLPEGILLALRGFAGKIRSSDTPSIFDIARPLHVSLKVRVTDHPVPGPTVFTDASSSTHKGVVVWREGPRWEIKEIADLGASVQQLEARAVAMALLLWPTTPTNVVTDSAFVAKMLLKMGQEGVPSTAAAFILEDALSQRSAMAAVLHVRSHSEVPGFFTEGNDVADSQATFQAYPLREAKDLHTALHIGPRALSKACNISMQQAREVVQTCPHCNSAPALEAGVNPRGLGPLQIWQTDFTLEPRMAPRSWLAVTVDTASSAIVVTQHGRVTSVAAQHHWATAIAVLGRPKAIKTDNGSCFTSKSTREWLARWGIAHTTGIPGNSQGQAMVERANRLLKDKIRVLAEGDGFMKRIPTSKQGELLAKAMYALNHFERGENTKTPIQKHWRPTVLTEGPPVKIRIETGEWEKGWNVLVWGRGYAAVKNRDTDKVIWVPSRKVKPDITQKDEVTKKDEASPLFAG"}, "[3]": {"molecular_target": "MuLV RT (Moloney murine leukemia virus) (UniProt P03355)"}, "[4]": {"molecular_target": "HIV RT (HIV) (UniProt P04585+P04585)"}}, "data": [{"substance": "Random DNA", "values": [{"measurement": "Kd", "setting": "[1]", "result": 62, "unit": "nM"}, {"measurement": "Kd", "setting": "[2]", "result": 20, "unit": "nM"}, {"measurement": "Kd", "setting": "[3]", "result": 116, "unit": "nM"}, {"measurement": "Kd", "setting": "[4]", "result": 106, "unit": "nM"}]}]}
